Consider six molecules from patent publication US20240190987A1, “Engineered EpCam Binding Antibodies” (TigaTX, priority 2021, published 2024).

The data set in a line: Differential scanning fluorimetry (DSF) melting temperature. In kind it is physicochemical. Here is the method: DSF was performed on a LC480 Lightcycler Instrument II (Roche). Purified recombinant protein was diluted to 5 μM in DSF buffer (PBS, pH 7.4, Sypro Orange 5×) with small molecule (10 μM VTX) or vehicle (0.05% DMSO) and then heated with a temperature gradient (0.01° C./s) from 25 to 95° C. Data were continuously acquired at ˜465 nm (excitation) and ˜580 nm (emission). Data was analyzed to generate first derivative curves in which the curve maximum was reported as the melting temperature of the protein.

The mark [1] stands for this setting: thermostability by DSF, Table 26.

Substitutions are numbered along the chain they refer to. Names and notes keep the numbering of the source.

B1: Ab0785: LS2A R2M34 Fab, His-Tag, Avi-Tag (antibody, V domains shown)
VH: QVQLVQSGAEVKKPGASVKVSCKASGYTFTSYWMHWVRQHPGQGLEWMGIIHPNSGGTSYAQKFQGRVTMTRDTSTSTVYMELSSLRSEDTAVYYCAMGDYVSRDYWGQGTLVTVSS
VL: EIVLTQSPGTLSLSPGERATLSCRASSSVSSSYLHWYQQKPGQAPRLLIYSTSSRATGIPDRFSGSGSGTDFTLTISRLEPEDFAVYYCQQYSGYQFTFGQGTKLEIK
With B1, the “TM (° C.)” value (Table 19) amounted to 70.9 °C.

B2: Ab0788: LS2A R3M3 Fab, HC: S58N on R2M34 (antibody)
heavy: QVQLVQSGAEVKKPGASVKVSCKASGYTFTSYWMHWVRQHPGQGLEWMGIIHPNSGGTNYAQKFQGRVTMTRDTSTSTVYMELSSLRSEDTAVYYCAMGDYVSRDYWGQGTLVTVSSASTKGPSVFPLAPSSKSTSGGTAALGCLVKDYFPEPVTVSWNSGALTSGVHTFPAVLQSSGLYSLSSVVTVPSSSLGTQTYICNVNHKPSNTKVDKKVEPKSCGGGGSHHHHHHGGGGSGLNDIFEAQKIEWHEG
VL: B1 VL
Take B2: under “Table 19”, the “TM (° C.)” value is 70.1 °C.

B3: Ab0775: anti-CD3 binding domain, FIGS. 7A-7C (antibody)
heavy: EVQLVESGGGLVQPGGSLRLSCAASGFTFNTYAMNWVRQAPGKGLEWVGRIRSKYNNYATYYADSVKGRFTISRDDSKSILYLQMNSLRAEDTAVYYCVRHGNFGNSYVSWFAYWGQGTLVTVSSGGGGSGGGGSGGGGSDIQVTQSPSSLSASVGDRVTITCRSSTGAVTTSNYANWVQQKPGKAFKGLIGGTNKRAPGVPSRFSGSLSGDDATLTISSLQPEDFATYYCALWYSNLWVFGQGTKLEIKGGGGSDKTHTCPPCPAPEAAGGPSVFLFPPKPKDTLMISRTPEVTCVVVDVSHEDPEVKFNWYVDGVEVHNAKTKPREEQYNSTYRVVSVLTVLHQDWLNGKEYKCKVSNKALGAPIEKTISKAKGQPREPQVYTLPPSRDELTKNQVSLTCLVKGFYPSDIAVEWESNGQPENNYKTTPPVLDSDGSFFLYSKLTVDKSRWQQGNVFSCSVMHEALHNHYTQKSLSLSPGK
modifications: light chain not cited; REGION 1..482: note = Ab0775 HC
With B3, the “TM (° C.)” value (DSF, hSP34v68 R1 variants (Table 23)) is 64.1 °C.

B4: Ab1018: anti-EpCAM binding domain, FIGS. 8A-8C (antibody, V domains shown)
VH: EVQLVESGGGLVQPGGSLRLSCAASGFTFSNYWMNWVRQAPGKGLEWVAQIRVKSENFATHYADSVKGRFTISRDDSKSTVYLQMNSLRAEDTAVYYCTLYEGFSWGQGTLVTVSS
VL: DIQMTQSPSSLSASVGDRVTITCSASSSVSSGNFHWYQQKPGKAPKLLIYRTSNLASGVPSRFSGSGSGTDYTLTISSLQPEDFATYYCQQWSGYPYTFGQGTKVEIK
With B4, the “TM (° C.)” value under setting [1] amounted to 69.9 °C.

B5: Ab1020: anti-EpCAM binding domain, FIGS. 8A-8C (antibody, V domains shown)
VH: B4 VH with N35H, E102D
VL: B4 VL
Turning to B5, the “TM (° C.)” value under setting [1] worked out at 68 °C.

B6: Ab0898: humanized LS2A R2M34 (antibody)
heavy: QVQLVQSGAEVKKPGASVKVSCKASGYTFTSYWMHWVRQHPGQGLEWMGIIHPNSGGTSYAQKFQGRVTMTRDTSTSTVYMELSSLRSEDTAVYYCAMGDYVSRDYWGQGTLVTVSSGGGGSGGGGSGGGGSEIVLTQSPGTLSLSPGERATLSCRASSSVSSSYLHWYQQKPGQAPRLLIYSTSSRATGIPDRFSGSGSGTDFTLTISRLEPEDFAVYYCQQYSGYQFTFGQGTKLEIKGGGGSDKTHTCPPCPAPEAAGGPSVFLFPPKPKDTLMISRTPEVTCVVVDVSHEDPEVKFNWYVDGVEVHNAKTKPREEQYNSTYRVVSVLTVLHQDWLNGKEYKCKVSNKALGAPIEKTISKAKGQPREPQVYTLPPSRDELTKNQVSLTCLVKGFYPSDIAVEWESNGQPENNYKTTPPVLDSDGSFFLYSKLTVDKSRWQQGNVFSCSVMHEALHNHYTQKSLSLSPGK
modifications: light chain not cited; REGION 1..472: note = Ab0898 HC
notes: humanized LS2A R2M34
B6: where the note is “scFv-Fc format, LS2A R3 (Table 20)”, the “TM (° C.)” value was 52.5 °C.
